The values that follow come from article PMC10157173 (Frontiers in Immunology, 2023).

The target in assay [1] is T1, His-tagged recombinant human HER3 ECD (Homo sapiens (Human)., UniProt P21860).
T1 construct: human HER3, extracellular domain (ECD); see the supplier's catalogue entry; also called HER3-His; source: bought: Sino Biological Inc (#10201-H08H)
Put plainly: ELISA; direct ELISA: His-tagged EGFR, HER2 or HER3 coated at 800 ng/ml in PBS on Maxisorp plates; two-fold or ten-fold dilutions of BiXAb™ or 1MAbs in PBS, 37°C, 1 h; detected with peroxidase-conjugated anti-human Fc. Conditions: both partners purified. (In general: ELISA stands for enzyme-linked immunosorbent assay.)

For assay [2], the target named is T2, His-tagged recombinant human EGFR ECD (Homo sapiens (Human)., UniProt P00533).
T2 construct: human EGFR, extracellular domain (ECD); see the supplier's catalogue entry; also called EGFR-His; source: bought: Sino Biological Inc (#10001-H08H)
The description is as above. The following applies: both partners purified.

B1: elgemtumab (antibody, V domains shown)
VH: EVQLLESGGGLVQPGGSLRLSCAASGFTFSSYAMSWVRQAPGKGLEWVSAINSQGKSTYYADSVKGRFTISRDNSKNTLYLQMNSLRAEDTAVYYCARWGDEGFDIWGQGTLVTVSS
VL: DIQMTQSPSSLSASVGDRVTITCRASQGISNWLAWYQQKPGKAPKLLIYGASSLQSGVPSRFSGSGSGTDFTLTISSLQPEDFATYYCQQYSSFPTTFGQGTKVEIK
notes: heavy chain of elgemtumab; light chain of elgemtumab; also called 3Elgem; anti-HER3 mAb; source: cloning, production and purification of mAbs at Icosagen; copies: 2 + 2
For B1, the binding result in assay [1] is recorded as “binds”.

B2: patritumab (antibody, V domains shown)
VH: QVQLQQWGAGLLKPSETLSLTCAVYGGSFSGYYWSWIRQPPGKGLEWIGEINHSGSTNYNPSLKSRVTISVETSKNQFSLKLSSVTAADTAVYYCARDKWTWYFDLWGRGTLVTVSS
VL: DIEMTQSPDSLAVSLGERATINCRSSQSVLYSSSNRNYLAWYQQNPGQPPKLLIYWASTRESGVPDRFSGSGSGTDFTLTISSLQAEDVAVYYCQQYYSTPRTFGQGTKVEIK
notes: heavy chain of patritumab; light chain of patritumab; also called 3Patri; anti-HER3 mAb; source: cloning, production and purification of mAbs at Icosagen; copies: 2 + 2
On to B2, for which the binding result in assay [1] is recorded as “binds”.

B3: matuzumab (antibody, V domains shown)
VH: QVQLVQSGAEVKKPGASVKVSCKASGYTFTSHWMHWVRQAPGQGLEWIGEFNPSNGRTNYNEKFKSKATMTVDTSTNTAYMELSSLRSEDTAVYYCASRDYDYDGRYFDYWGQGTLVTVSS
VL: DIQMTQSPSSLSASVGDRVTITCSASSSVTYMYWYQQKPGKAPKLLIYDTSNLASGVPSRFSGSGSGTDYTFTISSLQPEDIATYYCQQWSSHIFTFGQGTKVEIK
notes: heavy chain of matuzumab; light chain of matuzumab; also called 1Matu; anti-EGFR mAb; source: cloning, production and purification of mAbs at Icosagen; matuzumab also donated by Merck AG; copies: 2 + 2
With B3, the binding result in assay [2] is listed as “binds”.
